Measurements: patent US20230151106A1, “OFATUMUMAB FOR TREATING MS WHILE MAINTAINING SERUM IgG” (NOVARTIS AG, priority 2020, published 2023)
“Also recorded” adds a separate entry of the source. Like-named read-outs stand apart in the source and are kept apart here.

Assays:
IgM = assay: Long term study (Example 5), IgM levels; assay type: in vivo, human; conditions: OMB long-term group, FIGS. 16 and 17
From the text: (§1) 2”, preferably version 13.0 dated 2018-11.
(§2) Patients were subjected to a long term treatment.

[1] = system: multiple sclerosis patients; assay: Infections in relation to IgM/IgG levels <LLN vs >=LLN in ofatumumab MS studies
From the text: (§3) Serum IgG/IgM levels were monitored at baseline, Week (W) 4, W12 and every 12 weeks, see FIG. 1.

MS patients [2] = conditions: human, in vivo
[3] = system: multiple sclerosis patients; conditions: in vivo
From the text: as §3

B cells = assay: B-cell repletion after study treatment discontinuation (Pool C2, OMS115102); assay type: in vivo, human; conditions: study OMS115102, approximately 48 weeks post study
[4] = in vivo, sc, 20 mg
IgG = assay: Long term study (Example 5), IgG levels; assay type: in vivo, human; conditions: OMB long-term group, FIG. 14
From the text: as §1, §2

serum IgG [5] = conditions: in vivo
Protocol: (§4) In the present application serum Ig levels can preferably be determined by immunoturbidimetry. Preferably a Roche cobas® Analyzer was used, especially module c of the cobas® analyser. In a preferred embodiment Ig levels can be determined by using a cobas® c 311 analyzer. It is further preferred that IgG measurements are carried out as described in the cobas® leaflet “IGG-2 Tina-quant IgG Gen. 2”, preferably version 11.0 dated 2016-02 and IgM measurements as described in the leaflet “IGM-2 Tina-quant IgM Gen. 2”, preferably version 13.0 dated 2018-11.
(§5) Serum samples were preferably kept at 2-8° C. before measurement.
(§6) Patients were randomised (1:1) to receive either ofatumumab 20 mg sc injections every 4 weeks (after an initial loading regimen of 20 mg sc doses on Days 1, 7 and 14) or teriflunomide 14 mg orally once daily, for up to 30 months.
as §3

IgG levels = assay: Metanalysis of Example 1 versus Derfuss et al. (pooled OPERA), IgG levels; assay type: in vivo, human
From the text: In a metanalysis, the results of Example 1 and the results obtained by Derfuss et al. were compared.

COVID-19 = conditions: for COVID-19 symptoms duration / Outcome: serious case
Protocol: Confirmed or suspected cases of COVID-19 infection in patients receiving ofatumumab in the open-label extension study ALITHIOS were reviewed (data cutoff: Dec. 21, 2020)
COVID-19 cases were classified as confirmed if SARS-CoV2 positive test results were available, or patient was reported to be diagnosed with COVID-19
Suspected cases of COVID-19 were classified as suspected if without a positive SARS-CoV2 test or definitive diagnosis
The following COVID-19 case characteristics were assessed:
*Serious criteria is based on the regulatory reporting definition established by ICH, for the purposes of regulatory reporting obligations, and consists of fatal, life-threatening, hospitalization and medically significant

CD20 receptor = target: T1, CD20 receptor (Homo sapiens, UniProt P11836); assay: B-cell binding studies, off-rate; conditions: in comparison to rituximab
T1 construct: endogenous in cells
T1 sequence (P11836 1-297): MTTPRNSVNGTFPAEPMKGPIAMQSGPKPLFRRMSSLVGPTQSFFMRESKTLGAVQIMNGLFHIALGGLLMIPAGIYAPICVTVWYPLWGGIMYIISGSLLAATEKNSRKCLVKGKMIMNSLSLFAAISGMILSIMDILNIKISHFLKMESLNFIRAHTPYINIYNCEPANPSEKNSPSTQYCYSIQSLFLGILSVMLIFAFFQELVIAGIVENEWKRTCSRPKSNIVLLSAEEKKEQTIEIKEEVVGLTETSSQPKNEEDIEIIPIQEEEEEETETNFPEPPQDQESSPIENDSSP

MS patients [6] = assay: General safety in MS clinical trials with ofatumumab (neutrophils, PML, hepatitis B, malignancy, cytopenia); conditions: human, in vivo
serum IgG [7] = assay: Serum IgG levels in ASCLEPIOS I/II (Pool C2)
Protocol: as §4, §5, §6, §3

CD19+ B-cells = assay: CD19+ B-cell depletion in ASCLEPIOS; assay type: in vivo, human
Protocol: ASCLEPIOS I and II are double-blind, double-dummy, active comparator-controlled, parallel-group, innovative, adaptive design, multicentre trials. Patients were randomised (1:1) to receive either ofatumumab 20 mg sc injections every 4 weeks (after an initial loading regimen of 20 mg sc doses on Days 1, 7 and 14) or teriflunomide 14 mg orally once daily, for up to 30 months. […] Patients aged 18-55 years with an Expanded Disability Status Scale (EDSS) score (according to Kurtzke, Neurology. 1983, Nov; 33(11): 1444-52) of 0-5.5 at screening who experienced ≥1 relapse in the past year or ≥2 relapses in the past 2 years or a positive gadolinium-enhancing (Gd+) MRI scan during the year before randomisation were included.

MS patients [8] = conditions: cited from earlier work
CD20 receptor on B-cells = assay: Nonclinical ADCC activity comparison; assay type: cell-based; conditions: ofatumumab compared to ocrelizumab and rituximab
serum IgM = assay: Serum IgM levels in ASCLEPIOS I/II (Pool C2); assay type: in vivo, human
Protocol: In the present application serum Ig levels can preferably be determined by immunoturbidimetry. Preferably a Roche cobas® Analyzer was used, especially module c of the cobas® analyser.
as §5
ASCLEPIOS I and II are double-blind, double-dummy, active comparator-controlled, parallel-group, innovative, adaptive design, multicentre trials. Patients were randomised (1:1) to receive either ofatumumab 20 mg sc injections every 4 weeks (after an initial loading regimen of 20 mg sc doses on Days 1, 7 and 14) or teriflunomide 14 mg orally once daily, for up to 30 months.

## ofatumumab: recombinant human monoclonal immunoglobulin G1 (IgG1) antibody that binds to human CD20
IgM
  IgM levels with longer duration: levels remained above the lower limit of normal
[1]; IgG <LLN, N = 134
  Number of patients with at least 1 infection AE by Grade: Grade 4: 0 n
  infection AE by outcome: Fatal: 0 n
[1]; IgM <LLN, N = 167
  infection AE by outcome: Fatal: 0 n
[1]; IgM ≥LLN, N = 777
  infection AE by outcome: Fatal: 0 n
MS patients [2]
  cases of PML or Hepatitis B reactivation or serious potential OI: no cases
  incidence of malignancy: no increased incidence
  mean and median values of neutrophil count: remained within the normal ranges
  risk of neutropenia: No risk of neutropenia
[3]
  Infections observed after the first drop of IgG<LLN: 45.5%
  Infections observed after the first drop of IgG<LLN, number of patients: 61
  Number of patients with at least 1 infection AE by Grade: Grade 4: 0 n
  infection AE by outcome: Recovered/resolved: 0 n
  infection AE by outcome: Recovered/resolved with sequelae: 0 n
  infection AE by outcome: Recovering/resolving: 0 n
  patients who received immunoglobulin substitution therapy for decrease in IgG/M: none of the patients
  patients who reported an infection post study drug discontinuation: six of 32
  serious opportunistic infections: no cases
B cells
  B-cell repletion: B cells for all subjects were repleted, with the exception of one subject
[4]
  half-life at steady state: approximately 16 days
IgG
  IgG levels over long-term follow-up: stable over the long-term follow-up of >4 years
Serum IgG [5]
  patients with IgG below LLN, n/N: 134/944
IgG levels; after two years (96 weeks)
  increase of IgG levels: about 3%
IgG levels; in vivo
  effect on IgG levels on the long term: sustains and even increases IgG levels
COVID-19; Non-serious (n = 29)
  COVID-19 outcome: Ongoing: 0
  COVID-19 outcome: Recovered: 29
  COVID-19 outcome: Recovering: 0
COVID-19; Serious (n = 6)
  COVID-19 outcome: Recovered: 5
COVID-19; confirmed COVID-19 infection
  cases with no change in ofatumumab treatment required: 21 cases
COVID-19; human, in vivo
  cases with treatment temporarily interrupted due to confirmed COVID-19 infection: 5 cases
COVID-19; of 35 confirmed cases
  cases with complete recovery: 34 cases
  confirmed COVID-19 cases, Non-serious: Non-serious (n = 29)
COVID-19; Patient ID 5409018
  COVID-19 symptoms duration: ~50 days
  Outcome: Complete
COVID-19; Patient ID 5608014
  COVID-19 symptoms duration: 18 days
  Outcome: Complete
COVID-19; Patient ID 5800004
  COVID-19 symptoms duration: ~30 days
  Outcome: Fatal
COVID-19; Patient ID 5800043
  COVID-19 symptoms duration: 11 days
  Outcome: Complete
COVID-19; Patient ID 5801015
  COVID-19 symptoms duration: 15 days
  Outcome: Complete
COVID-19; Patient ID 5806001
  COVID-19 symptoms duration: 10 days
  Outcome: Complete
CD20 receptor
  off-rate (dissociation rate of the antibody from the CD20 receptor): lower off-rate
MS patients [6]
  cytopenia during therapy: No cytopenia
Serum IgG [7]; ASCLEPIOS I and II, FIG. 7
  recovery of IgG levels after reduction until Week 36: recovered up to baseline levels by W72
Serum IgG [7]; Week 96
  change in mean serum IgG value from baseline: +0.249 g/L
Serum IgG [7]; Week 96 (Week-96 completers)
  patients with IgG levels 20% below the LLN: no ofatumumab patients
Serum IgG [7]; Week 96, ASCLEPIOS studies
  increase in mean serum IgG value from baseline: 2.2%
Serum IgG [7]; any time post-baseline, FIG. 8
  proportion of patients with IgG levels below the LLN versus teriflunomide: lower proportion
Serum IgG [7]; any time post-baseline, FIG. 9
  patients with IgG levels on or above the LLN: > 85%
Serum IgG [7]; anytime during post baseline visit
  proportion of patients with IgG below LLN: 14.2%
Serum IgG [7]; in vivo
  turning point at which the trend of decreasing IgG levels reverses: 36 week
Serum IgG [7]; over 96 weeks treatment
  mean serum IgG over time compared to baseline: no decrease in mean values; also recorded: No decrease in mean serum IgG
Serum IgG [7]; week 72 and thereafter
  decrease of IgG levels: no decrease
CD19+ B-cells; Week 1
  patients with CD19+ B-cells below LLN: 77.0%
  patients with CD19+ B-cells below LLN, n/M: 338/439
CD19+ B-cells; Week 1, listed as OMB
  patients with CD19+ B-cells below LLN: (77.0) %
CD19+ B-cells; Week 2
  patients with CD19+ B-cells below LLN: 95.0%
  patients with CD19+ B-cells below LLN, n/M: 420/442
CD19+ B-cells; Week 2, listed as OMB
  patients with CD19+ B-cells below LLN: (95.0) %
CD19+ B-cells; Week 4
  patients with CD19+ B-cells below LLN: (97.8) %
  patients with CD19+ B-cells below LLN, n/M: 440/450
CD19+ B-cells; Week 12
  patients with CD19+ B-cells below LLN: 99.3%
  patients with CD19+ B-cells below LLN, n/M: 440/443
CD19+ B-cells; Week 12, listed as OMB
  patients with CD19+ B-cells below LLN: (99.3) %
CD19+ B-cells; Week 24
  patients with CD19+ B-cells below LLN: (98.4) %
  patients with CD19+ B-cells below LLN, n/M: 422/429
CD19+ B-cells; Week 36
  patients with CD19+ B-cells below LLN: (98.8) %
  patients with CD19+ B-cells below LLN, n/M: 415/420
CD19+ B-cells; Week 48
  patients with CD19+ B-cells below LLN: (98.3) %
  patients with CD19+ B-cells below LLN, n/M: 397/404
CD19+ B-cells; Week 60
  patients with CD19+ B-cells below LLN: (96.7) %
  patients with CD19+ B-cells below LLN, n/M: 385/398
CD19+ B-cells; Week 72
  patients with CD19+ B-cells below LLN: (98.2) %
  patients with CD19+ B-cells below LLN, n/M: 379/386
CD19+ B-cells; Week 84
  patients with CD19+ B-cells below LLN: (98.9) %
  patients with CD19+ B-cells below LLN, n/M: 260/263
CD19+ B-cells; Week 96
  patients with CD19+ B-cells below LLN: (99.4) %
  patients with CD19+ B-cells below LLN, n/M: 161/162
CD19+ B-cells; Week 108
  patients with CD19+ B-cells below LLN: (97.9) %
  patients with CD19+ B-cells below LLN, n/M: 93/95
CD19+ B-cells; Week 120
  patients with CD19+ B-cells below LLN: (100) %
  patients with CD19+ B-cells below LLN, n/M: 28/28
CD19+ B-cells; from Week 2 onwards
  median CD19+ B-cell count: zero
CD19+ B-cells; throughout the treatment period
  patients in whom CD19+ B-cell depletion was maintained: > 96%
MS patients [8]; ASCLEPIOS I/II
  suppression of gadolinium (Gd) T1 lesions when compared to Aubagio: highly significant suppression
MS patients [8]; ASCLEPIOS I
  annualized relapse rate (ARR): 0.11
  reduction in annualized relapse rate (ARR) compared to Aubagio (teriflunomide): 50.5%
MS patients [8]; ASCLEPIOS II
  annualized relapse rate (ARR): 0.10
  reduction in annualized relapse rate (ARR) compared to Aubagio (teriflunomide): 58.5%
MS patients [8]; pre-specified pooled analyses
  relative risk reduction in 3-month confirmed disability progression (CDP) versus Aubagio: 34.4%
  relative risk reduction in 6-month CDP versus Aubagio: 32.5%
CD20 receptor on B-cells
  ADCC activity: No relevant difference
Serum IgM; MS studies
  IgM decline with treatment: some level of IgM decline but the majority of the patients remained above LLN
Serum IgM; Week 96 completers, Pool C2
  change in mean IgM: -0.537 g/L
  decline in mean IgM: 38.8%
Serum IgM; any time post baseline and at Week 96, FIG. 8
  proportion of patients with IgM levels below LLN and 10% below the LLN versus teriflunomide: higher proportion
Serum IgM; any time post-baseline, FIG. 9
  patients with IgM levels on or above the LLN: 82-89%
Serum IgM; baseline to Week 48, Pool C2
  change in mean IgM value: -0.420 g/L
  decrease in mean IgM value: 30.9%
Serum IgM; over time, reference range 0.40-2.30 g/L
  mean serum IgM levels versus reference range: remained well within the reference ranges
